Experiments:
3×MBT domain of L3MBTL1 = assay: Triple SILAC pull-down, 3xMBT/3xMBTD355N ratio (cytoplasmic, nuclear and chromatin fractions of 293T cells); format: binding, human; conditions: for 3xMBT/D355N UNC Heavy: experiment with UNC0638 in heavy SILAC media; for 3xMBT/D355N UNC Light: experiment with UNC0638 in light SILAC media;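 for all read-outs here: proteins quantified with MaxQuant, requiring at least two unique peptides and quantification in both label directions, normalized to the mean of proteins from a digested loading control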
G9a and GLP = target: T1, G9a and GLP (Homo sapiens, UniProt Q96KQ7+Q9H9B1); assay: Triple SILAC pull-down after UNC0638 treatment of 293T cells, DMSO/UNC0638 ratio of protein captured by 3×MBT; format: cell-based; conditions: for Relative to UNC0638 UNC Heavy: UNC0638 in heavy SILAC media; for Relative to UNC0638 UNC Light: UNC0638 in light SILAC media; for Relative to UNC0638 Average: average of UNC Light and UNC Heavy experiments;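 for all read-outs here: mass spectrometry (Q-Exactive) SILAC quantitation, DMSO/UNC0638 ratio computed after subtracting 3×MBTD355N mutant pull-down background, only proteins with at least twofold 3×MBT over mutant signal considered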
T1 construct: endogenous in cells; host or cells: HEK 293T
T1 sequence (Q96KQ7 2-1210 limits assumed): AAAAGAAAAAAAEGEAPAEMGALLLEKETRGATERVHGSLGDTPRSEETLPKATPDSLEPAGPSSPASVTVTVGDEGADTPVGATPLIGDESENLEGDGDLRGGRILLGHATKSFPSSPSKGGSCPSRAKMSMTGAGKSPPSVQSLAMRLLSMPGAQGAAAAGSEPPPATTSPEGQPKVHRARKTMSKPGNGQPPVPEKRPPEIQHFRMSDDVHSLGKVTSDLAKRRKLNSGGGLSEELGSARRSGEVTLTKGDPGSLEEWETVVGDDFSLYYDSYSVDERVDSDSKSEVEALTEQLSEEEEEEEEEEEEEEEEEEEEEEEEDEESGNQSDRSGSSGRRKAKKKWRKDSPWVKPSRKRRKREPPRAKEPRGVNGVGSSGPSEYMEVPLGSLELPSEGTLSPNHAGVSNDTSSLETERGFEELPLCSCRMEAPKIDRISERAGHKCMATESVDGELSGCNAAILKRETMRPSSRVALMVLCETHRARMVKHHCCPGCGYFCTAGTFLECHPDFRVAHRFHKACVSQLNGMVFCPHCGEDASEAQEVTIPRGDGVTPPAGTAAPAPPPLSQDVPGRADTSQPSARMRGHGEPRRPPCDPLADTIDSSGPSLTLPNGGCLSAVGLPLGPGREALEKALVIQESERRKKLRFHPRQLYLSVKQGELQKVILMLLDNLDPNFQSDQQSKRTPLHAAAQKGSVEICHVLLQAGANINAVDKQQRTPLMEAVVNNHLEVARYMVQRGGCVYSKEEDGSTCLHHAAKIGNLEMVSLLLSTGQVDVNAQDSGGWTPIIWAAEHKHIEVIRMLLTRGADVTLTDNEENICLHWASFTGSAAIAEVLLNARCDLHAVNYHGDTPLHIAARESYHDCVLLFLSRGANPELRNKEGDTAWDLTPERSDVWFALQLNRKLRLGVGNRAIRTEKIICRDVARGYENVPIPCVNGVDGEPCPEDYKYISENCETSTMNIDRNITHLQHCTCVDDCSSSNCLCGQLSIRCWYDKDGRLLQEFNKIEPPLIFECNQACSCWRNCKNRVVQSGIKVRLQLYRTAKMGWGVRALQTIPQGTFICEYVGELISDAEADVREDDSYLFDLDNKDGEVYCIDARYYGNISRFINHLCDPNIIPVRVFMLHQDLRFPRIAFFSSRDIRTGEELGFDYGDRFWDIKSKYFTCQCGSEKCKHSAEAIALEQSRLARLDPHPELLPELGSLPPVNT
T1 sequence (Q9H9B1 2-1298 limits assumed): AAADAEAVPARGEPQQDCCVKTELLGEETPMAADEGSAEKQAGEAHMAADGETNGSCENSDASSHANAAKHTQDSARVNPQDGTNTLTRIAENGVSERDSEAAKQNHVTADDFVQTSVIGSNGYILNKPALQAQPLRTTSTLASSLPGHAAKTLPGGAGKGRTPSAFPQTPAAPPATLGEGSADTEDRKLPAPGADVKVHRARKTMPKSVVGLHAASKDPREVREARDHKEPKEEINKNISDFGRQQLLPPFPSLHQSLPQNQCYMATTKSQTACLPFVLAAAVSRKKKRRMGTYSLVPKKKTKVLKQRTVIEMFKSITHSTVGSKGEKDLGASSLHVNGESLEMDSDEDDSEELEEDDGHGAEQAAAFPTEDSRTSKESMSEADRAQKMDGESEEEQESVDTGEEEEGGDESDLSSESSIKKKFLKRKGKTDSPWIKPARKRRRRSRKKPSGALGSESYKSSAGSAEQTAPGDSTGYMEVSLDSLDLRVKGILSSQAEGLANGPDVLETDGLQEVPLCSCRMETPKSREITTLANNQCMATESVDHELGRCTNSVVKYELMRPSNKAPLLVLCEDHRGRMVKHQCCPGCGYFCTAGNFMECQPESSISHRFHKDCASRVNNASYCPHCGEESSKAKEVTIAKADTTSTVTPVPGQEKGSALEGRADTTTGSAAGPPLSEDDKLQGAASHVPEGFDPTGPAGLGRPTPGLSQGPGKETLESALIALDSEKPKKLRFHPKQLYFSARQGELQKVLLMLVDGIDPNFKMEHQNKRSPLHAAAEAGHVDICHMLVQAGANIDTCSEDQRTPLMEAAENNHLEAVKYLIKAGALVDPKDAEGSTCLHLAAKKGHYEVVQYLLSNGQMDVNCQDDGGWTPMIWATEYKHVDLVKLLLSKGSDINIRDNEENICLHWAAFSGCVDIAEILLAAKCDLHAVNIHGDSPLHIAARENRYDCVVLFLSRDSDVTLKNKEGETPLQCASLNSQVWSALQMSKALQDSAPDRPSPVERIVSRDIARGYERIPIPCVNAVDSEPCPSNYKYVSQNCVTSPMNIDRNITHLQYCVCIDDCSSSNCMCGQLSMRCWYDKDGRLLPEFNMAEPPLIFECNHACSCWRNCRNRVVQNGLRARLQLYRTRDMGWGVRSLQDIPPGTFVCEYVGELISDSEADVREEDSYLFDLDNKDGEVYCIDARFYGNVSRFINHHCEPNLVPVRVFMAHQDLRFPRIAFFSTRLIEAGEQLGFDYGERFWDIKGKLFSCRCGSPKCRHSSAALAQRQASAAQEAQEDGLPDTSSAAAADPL

[1] = SILAC ratio, pull-down 3xMBT vs 3xMBTD355N
[2] = SILAC ratio DMSO/UNC0638 of protein pulled down with 3xMBT
[3] = SILAC ratio 3xMBT vs 3xMBTD355N pull-down, 293T cells, all values in log base 2
[4] = SILAC ratio DMSO relative to UNC0638, pull-down with 3xMBT, all values in log base 2

Substance	3xMBT/D355N UNC Heavy (3×MBT domain of L3MBTL1; [1]) [log base 2]	3xMBT/D355N UNC Light (3×MBT domain of L3MBTL1; [1]) [log base 2]	Relative to UNC0638 UNC Heavy (G9a and GLP; [2]) [log base 2]	Relative to UNC0638 UNC Light (G9a and GLP; [2]) [log base 2]	Relative to UNC0638 Average (G9a and GLP) [log base 2]	3xMBT/D355N UNC Heavy (3×MBT domain of L3MBTL1; [3]) [log base 2]	3xMBT/D355N UNC Light (3×MBT domain of L3MBTL1; [3]) [log base 2]	Relative to UNC0638 UNC Heavy (G9a and GLP; [4]) [log base 2]	Relative to UNC0638 UNC Light (G9a and GLP; [4]) [log base 2]	Relative to UNC0638 Average (G9a and GLP; all values in log base 2) [log base 2]
XRCC5	2.15	2.80	0.14	0.17	0.15	–	–	–	–	–
PCBP1	2.16	2.49	0.11	0.19	0.15	–	–	–	–	–
HSPA5	0.70	2.32	0.35	0.05	0.20	–	–	–	–	–
TRIM25	1.88	0.76	0.05	0.46	0.25	–	–	–	–	–
VRK1	2.10	2.56	0.21	0.03	0.12	–	–	–	–	–
EEF1G	–	–	–	–	–	−0.67	−0.28	−0.03	−0.77	−0.40
EIF4B	–	–	–	–	–	3.26	2.50	−0.32	0.03	−0.15
PSIP1	2.72	2.92	0.17	0.15	0.16	–	–	–	–	–
EIF4E	2.40	2.40	0.04	0.31	0.18	–	–	–	–	–
BUB3	2.75	3.26	0.15	0.14	0.15	–	–	–	–	–
LANCL1	1.33	1.63	0.14	0.23	0.18	–	–	–	–	–
NONO	3.18	3.75	0.17	0.16	0.17	–	–	–	–	–
CORO1C	2.83	3.30	0.07	0.26	0.17	–	–	–	–	–
EIF4A1	3.59	3.68	0.30	0.05	0.18	–	–	–	–	–
FERMT2	–	–	–	–	–	3.33	1.42	−1.93	−0.07	−1.00
HIST1H1C	5.16	4.61	0.18	0.15	0.17	–	–	–	–	–
SEC24C	–	–	–	–	–	2.58	2.17	0.21	−0.05	0.08
FBXO22	–	–	–	–	–	3.56	0.77	0.58	−0.59	0.00
G3BP1 [Hit G3BP1]	2.02	2.72	0.23	0.15	0.19	–	–	–	–	–
DDX39A	2.00	1.53	0.36	0.01	0.18	–	–	–	–	–
GRB2	–	–	–	–	–	3.13	1.36	0.36	−0.45	−0.05
ANXA2	–	–	–	–	–	2.86	2.78	0.38	−0.31	0.04

Reference: US20140274782A1, “AFFINITY REAGENTS AND METHODS FOR DETECTION, PURIFICATION, AND PROTEOMIC ANALYSIS OF METHYLATED PROTEINS” (The Board of Trustees of the Leland Stanford Junior …, priority 2013, published 2014)
